Data set [1] concerns the molecule itself. As to the kind of experiment: atomic force microscopy; octamers to filaments; 5 nM septin-GFP incubated overnight on 2.5% mol PI(4,5)P2 supported lipid bilayers; imaged at room temperature in 20 mM Tris-HCl pH 8, 2 mM MgCl2, 150 mM NaCl.
Data set [2] concerns the molecule itself. As to the kind of experiment: negative-stain transmission electron microscopy; octamers to filaments; 100 nM (legend; methods: 0.005 mg/ml) GFP-tagged septin hetero-octamers on lipid monolayers of 77.5% Egg-PC, 20% Liver-PI, 2.5% Brain-PI(4,5)P2; 20 mM Tris-HCl pH 8, 2 mM MgCl2, 400 µM GTP, 150 mM NaCl; overnight at 4 °C; 2% uranyl acetate.

Values joined by “and” are separate entries in the source; they are usually repeats but may differ in a detail not shown here. Equal entries are not always repeated.

Broadly, the stoichiometry N is a count of units in the complex or per binding partner.

B1: wild-type septin-GFP hetero-octamer (Cdc11-Cdc12-Cdc3-Cdc10-Cdc10-Cdc3-Cdc12-Cdc11) (complex, S. cerevisiae)
chain 1: MSGIIDASSALRKRKHLKRGITFTVMIVGQSGSGRSTFINTLCGQQVVDTSTTILLPTDTSTEIDLQLREETVELEDDEGVKIQLNIIDTPGFGDSLDNSPSFEIISDYIRHQYDEILLEESRVRRNPRFKDGRVHCCLYLINPTGHGLKEIDVEFIRQLGSLVNIIPVISKSDSLTRDELKLNKKLIMEDIDRWNLPIYNFPFDEDEISDEDYETNMYLRTLLPFAIIGSNEVYEMGGDVGTIRGRKYPWGILDVEDSSISDFVILRNALLISHLHDLKNYTHEILYERYRTEALSGESVAAESIRPNLTKLNGSSSSSTTTRRNTNPFKQSNNINNDVLNPASDMHGQSTGENNETYMTREEQIRLEEERLKAFEERVQQELLLKRQELLQREKELREIEARLEKEAKIKQEE
chain 2: MSAATATAAPVPPPVGISNLPNQRYKIVNEEGGTFTVMLCGESGLGKTTFINTLFQTVLKRADGQQHRQEPIRKTVEIDITRALLEEKHFELRVNVIDTPGFGDNVNNNKAWQPLVDFIDDQHDSYMRQEQQPYRTKKFDLRVHAVLYFIRPTGHGLKPIDIETMKRLSTRANLIPVIAKADTLTAQELQQFKSRIRQVIEAQEIRIFTPPLDADSKEDAKSGSNPDSAAVEHARQLIEAMPFAIVGSEKKFDNGQGTQVVARKYPWGLVEIENDSHCDFRKLRALLLRTYLLDLISTTQEMHYETYRRLRLEGHENTGEGNEDFTLPAIAPARKLSHNPRYKEEENALKKYFTDQVKAEEQRFRQWEQNIVNERIRLNGDLEEIQGKVKKLEEQVKSLQVKKSHLK
chain 3: MSLKEEQVSIKQDPEQEERQHDQFNDVQIKQESQDHDGVDSQYTNGTQNDDSERFEAAESDVKVEPGLGMGITSSQSEKGQVLPDQPEIKFIRRQINGYVGFANLPKQWHRRSIKNGFSFNLLCVGPDGIGKTTLMKTLFNNDDIEANLVKDYEEELANDQEEEEGQGEGHENQSQEQRHKVKIKSYESVIEENGVKLNLNVIDTEGFGDFLNNDQKSWDPIIKEIDSRFDQYLDAENKINRHSINDKRIHACLYFIEPTGHYLKPLDLKFMQSVYEKCNLIPVIAKSDILTDEEILSFKKTIMNQLIQSNIELFKPPIYSNDDAENSHLSERLFSSLPYAVIGSNDIVENYSGNQVRGRSYPWGVIEVDNDNHSDFNLLKNLLIKQFMEELKERTSKILYENYRSSKLAKLGIKQDNSVFKEFDPISKQQEEKTLHEAKLAKLEIEMKTVFQQKVSEKEKKLQKSETELFARHKEMKEKLTKQLKALEDKKKQLELSINSASPNVNHSPVPTKKKGFLR
chain 4: MDPLSSVQPASYVGFDTITNQIEHRLLKKGFQFNIMVVGQSGLGKSTLINTLFASHLIDSATGDDISALPVTKTTEMKISTHTLVEDRVRLNINVIDTPGFGDFIDNSKAWEPIVKYIKEQHSQYLRKELTAQRERFITDTRVHAILYFLQPNGKELSRLDVEALKRLTEIANVIPVIGKSDTLTLDERTEFRELIQNEFEKYNFKIYPYDSEELTDEELELNRSVRSIIPFAVVGSENEIEINGETFRGRKTRWSAINVEDINQCDFVYLREFLIRTHLQDLIETTSYIHYEGFRARQLIALKENANSRSSAHMSSNAIQR
notes: Cdc11, septin of S. cerevisiae; Cdc12, septin of S. cerevisiae; Cdc3, septin of S. cerevisiae; Cdc10, septin of S. cerevisiae; Tag ends are read from the printed construct names MBP-Cdc12/(6xHis)Cdc3-GFP; The purified complex is named without MBP; also called GFP-tagged septin octamers; wild-type septin-GFP complexes; source: E. coli BL21 (DE3) Rosetta, co-expressed from two plasmids, purified …
Turning to B1, the “stoichiometry N” value in data set [1] was 5 octamers; in data set [2] it was 2 octamers and 3 octamers.

B2: septin-GFP hetero-octamer containing ΔCTE-Cdc12 (deletion of the C-terminal extension of Cdc12, residues 339-407) (complex, S. cerevisiae)
chain 1: B1 chain 1
chain 2: MSAATATAAPVPPPVGISNLPNQRYKIVNEEGGTFTVMLCGESGLGKTTFINTLFQTVLKRADGQQHRQEPIRKTVEIDITRALLEEKHFELRVNVIDTPGFGDNVNNNKAWQPLVDFIDDQHDSYMRQEQQPYRTKKFDLRVHAVLYFIRPTGHGLKPIDIETMKRLSTRANLIPVIAKADTLTAQELQQFKSRIRQVIEAQEIRIFTPPLDADSKEDAKSGSNPDSAAVEHARQLIEAMPFAIVGSEKKFDNGQGTQVVARKYPWGLVEIENDSHCDFRKLRALLLRTYLLDLISTTQEMHYETYRRLRLEGHENTGEGNEDFTLPAIAPARKLSH
chain 3: B1 chain 3
chain 4: B1 chain 4
notes: Cdc11, septin of S. cerevisiae; Cdc12, septin of S. cerevisiae; Cdc3, septin of S. cerevisiae; Cdc10, septin of S. cerevisiae; also called ΔCTE-Cdc12 mutant; Cdc12 mutants; source: E. coli BL21 (DE3) Rosetta, co-expressed, purified (amylose resin, Ni-NTA-agarose), same protocol as wild type; not shown: GFP, C-terminal, kept; copies: 2 + 2 + 2 + 2
Regarding B2, the “stoichiometry N” value in data set [2] was about 4 octamers.

B3: septin-GFP hetero-octamer containing ΔAH-Cdc12 (C-terminal deletion of Cdc12 residues 390-407) (complex, S. cerevisiae)
chain 1: B1 chain 1
chain 2: MSAATATAAPVPPPVGISNLPNQRYKIVNEEGGTFTVMLCGESGLGKTTFINTLFQTVLKRADGQQHRQEPIRKTVEIDITRALLEEKHFELRVNVIDTPGFGDNVNNNKAWQPLVDFIDDQHDSYMRQEQQPYRTKKFDLRVHAVLYFIRPTGHGLKPIDIETMKRLSTRANLIPVIAKADTLTAQELQQFKSRIRQVIEAQEIRIFTPPLDADSKEDAKSGSNPDSAAVEHARQLIEAMPFAIVGSEKKFDNGQGTQVVARKYPWGLVEIENDSHCDFRKLRALLLRTYLLDLISTTQEMHYETYRRLRLEGHENTGEGNEDFTLPAIAPARKLSHNPRYKEEENALKKYFTDQVKAEEQRFRQWEQNIVNERIRLNGDLEEIQGKV
chain 3: B1 chain 3
chain 4: B1 chain 4
notes: Cdc11, septin of S. cerevisiae; Cdc12, septin of S. cerevisiae; Cdc3, septin of S. cerevisiae; Cdc10, septin of S. cerevisiae; also called ΔAH-Cdc12 mutant; ΔAH mutant; source: E. coli BL21 (DE3) Rosetta, co-expressed, purified (amylose resin, Ni-NTA-agarose), same protocol as wild type; not shown: GFP, C-terminal, kept; copies: 2 + 2 + 2 + 2
Take B3: the “stoichiometry N” value in data set [2] is about 4 octamers.

For the origin of these results see article doi:10.1101/2024.03.19.585775, “Septin filament assembly assist the lateral organization of membranes” (bioRxiv, 2024).
